Results taken from patent publication US20250388666A1 (BRIGHAM AND WOMEN S HOSPITAL, published 2025).

T1: CEACAM6 (Sino Biological) (human, UniProt P40199 35-320)
T1 construct: also called hCEACAM6
T1 sequence (looked up): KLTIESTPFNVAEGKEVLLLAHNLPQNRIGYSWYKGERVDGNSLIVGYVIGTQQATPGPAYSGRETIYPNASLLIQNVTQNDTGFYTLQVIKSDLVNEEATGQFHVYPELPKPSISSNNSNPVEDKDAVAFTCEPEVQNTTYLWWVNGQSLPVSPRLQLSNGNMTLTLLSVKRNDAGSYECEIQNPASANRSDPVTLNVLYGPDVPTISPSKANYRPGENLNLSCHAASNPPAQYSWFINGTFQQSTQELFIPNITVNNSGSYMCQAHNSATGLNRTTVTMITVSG

T2: CEACAM5 (Sino Biological) (human, UniProt P06731 35-685)
T2 construct: also called hCEACAM5
T2 sequence (looked up): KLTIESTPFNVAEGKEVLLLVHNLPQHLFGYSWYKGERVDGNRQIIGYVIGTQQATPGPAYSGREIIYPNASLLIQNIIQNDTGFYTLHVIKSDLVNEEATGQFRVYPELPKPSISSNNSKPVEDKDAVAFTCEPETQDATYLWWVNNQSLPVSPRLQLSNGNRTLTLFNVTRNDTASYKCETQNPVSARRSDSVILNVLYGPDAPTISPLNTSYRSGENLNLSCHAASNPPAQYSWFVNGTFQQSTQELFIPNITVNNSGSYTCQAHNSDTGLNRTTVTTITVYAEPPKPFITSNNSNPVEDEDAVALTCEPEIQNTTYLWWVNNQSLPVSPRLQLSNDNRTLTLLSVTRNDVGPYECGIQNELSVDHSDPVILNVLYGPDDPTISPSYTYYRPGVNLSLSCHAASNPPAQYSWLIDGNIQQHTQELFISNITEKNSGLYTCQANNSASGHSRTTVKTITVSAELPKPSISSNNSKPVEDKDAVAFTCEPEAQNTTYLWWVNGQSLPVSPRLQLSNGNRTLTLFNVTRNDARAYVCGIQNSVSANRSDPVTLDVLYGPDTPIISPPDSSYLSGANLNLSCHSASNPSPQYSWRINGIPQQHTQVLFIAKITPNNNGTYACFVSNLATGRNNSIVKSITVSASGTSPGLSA

T3: CEACAM6 on transfected HeLa cells (UniProt P40199 35-320, limits assumed)
T3 construct: whole, on cells; also called C6
T3 sequence (looked up): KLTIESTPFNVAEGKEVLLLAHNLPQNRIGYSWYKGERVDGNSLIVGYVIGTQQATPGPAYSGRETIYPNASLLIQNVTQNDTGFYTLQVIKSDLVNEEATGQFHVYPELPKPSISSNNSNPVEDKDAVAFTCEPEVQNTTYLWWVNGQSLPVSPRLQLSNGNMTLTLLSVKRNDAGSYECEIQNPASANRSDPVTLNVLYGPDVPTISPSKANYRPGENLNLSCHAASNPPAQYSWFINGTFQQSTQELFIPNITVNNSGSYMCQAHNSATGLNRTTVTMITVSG

T4: human GST-CEACAM1 (human, UniProt P13688 35-141, limits assumed)
T4 construct: printed both as GST-CEACAM1 and CEACAM1-GST; also called human CEACAM1-GST protein; hCEACAM1-GST; not shown: GST tag
T4 sequence: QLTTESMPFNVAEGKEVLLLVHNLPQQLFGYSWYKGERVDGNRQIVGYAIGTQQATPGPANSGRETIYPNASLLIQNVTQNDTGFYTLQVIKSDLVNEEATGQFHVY


Key:
[1] = target: T1, CEACAM6 (Sino Biological); test: binding ELISA on plate-coated CEACAM (0.5 µg/mL); antibody at 1.67, 0.062 and 0.0069 µg/mL; signal as % of parent IgG on CEACAM1 at 1.67 µg/mL on the same plate
[2] = target: T2, CEACAM5 (Sino Biological); test: as above
[3] = target: T3, CEACAM6 on transfected HeLa cells; test: flow cytometry, transfected HeLa
Procedure, shortened: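 HeLa cells transfected separately with CEACAM1, CEACAM5 or CEACAM6 were stained with test antibodies, then fluorochrome-conjugated anti-isotype (human IgG4 or mouse IgG1) secondary plus DAPI viability dye. Binding read by flow cytometry.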

human GST-CEACAM1 = target: T4, human GST-CEACAM1; test: competition ELISA vs murine parent antibody
Procedure, shortened: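 Competition ELISA on plates coated overnight at 4° C with 1 μg/ml GST-CEACAM1, blocked with 2% BSA/PBS. Each antibody variant competed against the murine parental antibody for antigen binding, benchmarked against the chimeric VH0/Vκ0 antibody run on every plate.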

| binding result [1] | binding result [2] | relative fluorescence intensity [3] | average relative IC50 (normalized to chimeric antibody) (human GST-CEACAM1) [ratio] | Binder |
| --- | --- | --- | --- | --- |
| no binding (tested: 1.67 µg/mL) | no binding (tested: 1.67 µg/mL) | 1.31 |  | VH2 N56Q/Vκ4 S27(f)A IgG (antibody, V domains shown, IgG4 S241P, kappa; also called Parent; Parent IgG) VH: EVQLLESGGGLVQPGGSLRLSCAASGFSFSDYYLYWVRQAPGKGLEWVATISVGGGQTSYADSVKGRFTISRDNSKNTLYLQMNSLRAEDTAMYYCTRGLYYGPAWFAYWGQGTLVTVSS VL: not shown |
|  |  |  | 1 | chimeric parental antibody VH0/Vκ0 (antibody, IgG4, V domains shown, IgG4 (S241P), kappa; also called Chimera; chimeric antibody) VH: EVQLVESGGGFVKPGGSLKLSCAASGFSFSDYYLYWVRQTPEKRLEWVATISVGGGNTSYPDSVKGRFTISRDNAKNNLYLQMSSLKSEDTAMYYCTRGLYYGPAWFAYWGQGTLVTVSA VL: not shown |
